# Results: PMC12416549 (2024)
# Substitutions are numbered along the chain they refer to. Names and notes keep the numbering of the source.
# T1: TNFR1 (Homo sapiens, UniProt P19438)
# T1 chain: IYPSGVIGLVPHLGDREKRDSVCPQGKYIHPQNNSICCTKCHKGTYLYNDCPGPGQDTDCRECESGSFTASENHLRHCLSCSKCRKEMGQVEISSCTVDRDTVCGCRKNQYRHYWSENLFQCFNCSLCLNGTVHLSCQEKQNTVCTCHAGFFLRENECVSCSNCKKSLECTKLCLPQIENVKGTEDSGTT
# B1: E77T (designed binder)
# chain: MTLQELLREEALRRAEAEAFRYALELLAEKFPEQKEYLLDLAEEIESQIRSLSGVDVEDVRKFLDKEWAWVKELLATHPAELAEVEAARAARLAELRAEVEAKVAA
# B2: S51Y (designed binder)
# chain: B1 chain with S51Y, T77E
# B3: E73L (designed binder)
# chain: B1 chain with E73L, T77E
# B4: E95H (designed binder)
# chain: B1 chain with T77E, E95H
# B5: A17N (designed binder)
# chain: B1 chain with A17N, T77E
# B6: R13W (designed binder)
# chain: B1 chain with R13W, T77E
# B7: Q34A (designed binder)
# chain: B1 chain with Q34A, T77E
# B8: R14A (designed binder)
# chain: B1 chain with R14A, T77E
# B9: R14D (designed binder)
# chain: B1 chain with R14D, T77E
# B10: W70N (designed binder)
# chain: B1 chain with W70N, T77E
# B11: E67Y (designed binder)
# chain: B1 chain with E67Y, T77E
# B12: L39I (designed binder)
# chain: B1 chain with L39I, T77E
# B13: P32F (designed binder)
# chain: B1 chain with P32F, T77E
# B14: S47W (designed binder)
# chain: B1 chain with S47W, T77E
# B15: A28F (designed binder)
# chain: B1 chain with A28F, T77E
# B16: A19R (designed binder)
# chain: B1 chain with A19R, T77E
# B17: L24Y (designed binder)
# chain: B1 chain with L24Y, T77E
# B18: E43C (designed binder)
# chain: B1 chain with E43C, T77E
# B19: E58P (designed binder)
# chain: B1 chain with E58P, T77E
# B20: W70Q (designed binder)
# chain: B1 chain with W70Q, T77E
# B21: A15C (designed binder)
# chain: B1 chain with A15C, T77E
# B22: E77F (designed binder)
# chain: B1 chain with T77F
# B23: K35D (designed binder)
# chain: B1 chain with K35D, T77E
# B24: I49V (designed binder)
# chain: B1 chain with I49V, T77E
# B25: A91W (designed binder)
# chain: B1 chain with T77E, A91W
# B26: E77S (designed binder)
# chain: B1 chain with T77S
# B27: E9A (designed binder)
# chain: B1 chain with E9A, T77E
# B28: R8L (designed binder)
# chain: B1 chain with R8L, T77E
# B29: R89T (designed binder)
# chain: B1 chain with T77E, R89T
# B30: A94N (designed binder)
# chain: B1 chain with T77E, A94N
# B31: E44C (designed binder)
# chain: B1 chain with E44C, T77E
# B32: E81A (designed binder)
# chain: B1 chain with T77E, E81A
# B33: L3Y (designed binder)
# chain: B1 chain with L3Y, T77E
# B34: A98D (designed binder)
# chain: B1 chain with T77E, A98D
# B35: E84Q (designed binder)
# chain: B1 chain with T77E, E84Q
# B36: A83D (designed binder)
# chain: B1 chain with T77E, A83D
# B37: D40L (designed binder)
# chain: B1 chain with D40L, T77E
# B38: Y22Q (designed binder)
# chain: B1 chain with Y22Q, T77E
# B39: L82M (designed binder)
# chain: B1 chain with T77E, L82M
# B40: L64S (designed binder)
# chain: B1 chain with L64S, T77E
# B41: L93S (designed binder)
# chain: B1 chain with T77E, L93S
# B42: V104C (designed binder)
# chain: B1 chain with T77E, V104C
# B43: K72Q (designed binder)
# chain: B1 chain with K72Q, T77E
# Molecular target: T1, TNFR1
# Assay: yeast display SC50
row,apparent Kd (screen) [nM],Binder
1,0.49,B1
2,0.252,B2
3,0.653,B3
4,0.653,B4
5,0.593,B5
6,0.252,B6
7,0.593,B7
8,0.49,B8
9,0.335,B9
10,18.3,B10
11,3.63,B11
12,0.653,B12
13,0.653,B13
14,0.277,B14
15,12.5,B15
16,3.99,B16
17,0.539,B17
18,0.405,B18
19,0.718,B19
20,15.2,B20
21,0.539,B21
22,0.446,B22

row,apparent Kd (screen) [nM],Binder
1,1.27,B23
2,2.05,B24
3,0.718,B25
4,1.05,B26
5,1.4,B27
6,0.869,B28
7,0.446,B29
8,0.653,B30
9,20.2,B31
10,0.718,B32
11,0.593,B33
12,0.718,B34
13,0.869,B35
14,0.49,B36
15,1.4,B37
16,0.49,B38
17,0.49,B39
18,24.4,B40
19,1.05,B41
20,0.49,B42
21,0.539,B43
